According to patent US20090088402A1 (SUNGKYUNKWAN UNIVERSITY FOUNDATION FOR CORPORATE …, published 2009):

Target: T1, full length human p53 fused in frame with the B42D activation domain (pJG4-5) (human, UniProt P04637 1-393)
T1 construct: mature; Yeast two hybrid prey
Assay: yeast two hybrid, X-gal colony colour
From the text: To determine whether protein-protein interactions are involved, and which part of Msx1 are involved if any, in the stabilization of p53 leading to apoptosis of cells by Msx1, yeast two hybrid assays were used as previously described (Gyuris et al., Cell 75: 791-803, 1993; Part et al., ibid).
Briefly, to this end, four Msx1 constructs (FIG. 3A top) were made as described in Example 1. DNA fragments encoding full length human HPV-E6 and p53 proteins were isolated by PCR from the cDNA library derived from HeLa cells (Clontech) and cloned into pJG4-5 at unique EcoRI and XhoI sites for in-frame fusion of each cDNA with B42D activation domain. The truncated constructs of Msx1 as shown in FIG. 3A were obtained by PCR using specific set of primers designed for each deletion product and pCB6+/Msx1 as a template. Each amplified Msx1 fragment was then inserted into a pGlida vector (Clontech) using BamHI and XhoI sites to express it as a fusion protein with LexA. Each pGlida and pJG4-5 fusion construct prepared was then introduced into the testing yeast strain EGY48. […] The binding activity between HPV-E6 and Msx1 was also determined quantitatively by the relative expression level of β-galactosidase as described (Rho, S B et al., FEBS Lett 557: 57-63, 2004; Rho, S B et al., PNAS USA 93:10128-33,1996).

B1: Msx1 construct lacking homeodomain (1-165) expressed as a fusion protein with LexA (other)
chain: MTSLPLGVKVEDSAFGKPAGGGAGQAPSAAAATAAAMGADEEGAKPKVSPSLLPFSVEALMADHRKPGAKESALAPSEGVQAAGGSAQPLGVPPGSLGAPDAPSSPRPLGHFSVGGLLKLPEDALVKAESPEKPERTPWMQSPRFSPPPARRLSPPACTLRKHKT
notes: Yeast two hybrid bait; not shown: LexA as encoded by the pGlida vector (Clontech)
- binding result: no binding
